Data: IntAct's records for PubMed 16990850

B1: Serine/threonine-protein kinase/endoribonuclease IRE1 (Saccharomyces cerevisiae), P32361 (parent)
chain: MRLLRRNMLVLTLLVCVFSSIISCSIPLSSRTSRRQIVEDEVASTKKLNFNYGVDKNINSPIPAPRTTEGLPNMKLSSYPTPNLLNTADNRRANKKGRRAANSISVPYLENRSLNELSLSDILIAADVEGGLHAVDRRNGHIIWSIEPENFQPLIEIQEPSRLETYETLIIEPFGDGNIYYFNAHQGLQKLPLSIRQLVSTSPLHLKTNIVVNDSGKIVEDEKVYTGSMRTIMYTINMLNGEIISAFGPGSKNGYFGSQSVDCSPEEKIKLQECENMIVIGKTIFELGIHSYDGASYNVTYSTWQQNVLDVPLALQNTFSKDGMCIAPFRDKSLLASDLDFRIARWVSPTFPGIIVGLFDVFNDLRTNENILVPHPFNPGDHESISSNKVYLDQTSNLSWFALSSQNFPSLVESAPISRYASSDRWRVSSIFEDETLFKNAIMGVHQIYNNEYDHLYENYEKTNSLDTTHKYPPLMIDSSVDTTDLHQNNEMNSLKEYMSPEDLEAYRKKIHEQISRELDEKNQNSLLLKFGSLVYRIIETGVFLLLFLIFCAILQRFKILPPLYVLLSKIGFMPEKEIPIVESKSLNCPSSSENVTKPFDMKSGKQVVFEGAVNDGSLKSEKDNDDADEDDEKSLDLTTEKKKRKRGSRGGKKGRKSRIANIPNFEQSLKNLVVSEKILGYGSSGTVVFQGSFQGRPVAVKRMLIDFCDIALMEIKLLTESDDHPNVIRYYCSETTDRFLYIALELCNLNLQDLVESKNVSDENLKLQKEYNPISLLRQIASGVAHLHSLKIIHRDLKPQNILVSTSSRFTADQQTGAENLRILISDFGLCKKLDSGQSSFRTNLNNPSGTSGWRAPELLEESNNLQCQVETEHSSSRHTVVSSDSFYDPFTKRRLTRSIDIFSMGCVFYYILSKGKHPFGDKYSRESNIIRGIFSLDEMKCLHDRSLIAEATDLISQMIDHDPLKRPTAMKVLRHPLFWPKSKKLEFLLKVSDRLEIENRDPPSALLMKFDAGSDFVIPSGDWTVKFDKTFMDNLERYRKYHSSKLMDLLRALRNKYHHFMDLPEDIAELMGPVPDGFYDYFTKRFPNLLIGVYMIVKENLSDDQILREFLYS
partner: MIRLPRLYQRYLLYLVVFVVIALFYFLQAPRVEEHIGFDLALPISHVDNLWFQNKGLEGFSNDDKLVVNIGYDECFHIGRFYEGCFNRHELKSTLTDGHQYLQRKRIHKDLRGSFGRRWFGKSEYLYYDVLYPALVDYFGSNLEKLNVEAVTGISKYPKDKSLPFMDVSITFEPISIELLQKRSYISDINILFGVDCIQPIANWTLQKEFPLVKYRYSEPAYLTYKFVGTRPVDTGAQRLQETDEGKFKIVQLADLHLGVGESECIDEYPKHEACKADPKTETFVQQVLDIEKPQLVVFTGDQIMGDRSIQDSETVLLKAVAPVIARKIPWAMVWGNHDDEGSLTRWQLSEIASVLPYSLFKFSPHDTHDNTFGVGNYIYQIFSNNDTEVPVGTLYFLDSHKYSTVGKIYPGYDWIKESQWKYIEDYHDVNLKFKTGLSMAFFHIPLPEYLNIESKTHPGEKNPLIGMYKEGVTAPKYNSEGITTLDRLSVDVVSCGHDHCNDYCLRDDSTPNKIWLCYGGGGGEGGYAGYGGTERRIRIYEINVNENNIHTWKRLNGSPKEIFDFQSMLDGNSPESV

Variants of: B1
Conditions: with dcr2_yeast DCR2, Q05924

effect of a mutation on the interaction	Variant
increasing interaction	S840A
increasing interaction	S841A
